Measurements: the supplement of paper PMC7877785
± gives the uncertainty stated by the source.

Test: self-splicing fitness, log relative to wild type (ln ratio); higher = more splicing; Tetrahymena group I intron in knt gene, E. coli kanamycin selection, DiMSum; sequences stand for … in CUCUCU…GGAGGGAAAAGUUAUCAGGCAUGCACCUGGUAGCUAGUCUUUAAACCAAUAGAUUGCAUCGGUUUAAAAGGCAAGACCGUCAAAUUGCGGGAAAGGGGUCAACAGCCGUUCAGUACCAAGUCUCAGGGGAAACUUUGAGAUGGCCUUGCAAAGGGUAUGGUAAUAAGCUGACGGACAUGGUCCUAACCACGCAGCCAAGUCCUAAGUCAACAGAUCUUCUGUUGAUAUGGAUGCAGUUCACAGACUAAAUGUCGGUCGGGGAAGAUGUAUUCUUCUCAUAAGAUAUAGUCGGACCUCUCCUUAAUGGGAGCUAGCGGAUGAAGUGAUGCAACACUGGAGCCGCUGGGAACUAAUUUGUAUGCGAAAGUAUAUUGAUUAGUUUUGGAGUACUCGUGGUCG
Procedure, shortened: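 Fitness was computed with DiMSum as the error-weighted combination of replicate fold changes, kanamycin versus none, each normalised to wild type. The library randomised all eight intron nucleotides of the P1ex region, with the intron placed in the knt kanamycin-resistance gene on pET-22b(+) in E. coli BL21(DE3). Six replicate transformations were grown overnight at 37°C or 30°C on LB agar with or without 25 μg/mL kanamycin, plus 100 μg/mL carbenicillin, 50 μM IPTG and 0.2% rhamnose. Pooled colonies were amplicon-sequenced on an Illumina HiSeq 2500.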

Sequence	self-splicing fitness (ln) (30 °C)	self-splicing fitness (ln) (37 °C)
UGUCAGCAAUAUUACGCAGG	-2.52 ± 0.2	-3.19 ± 0.26
UGUCAGCAAUAUUACGCAUC	-2.61 ± 0.12	-1.57 ± 0.11
UGUCAGCAAUAUUACGCCUU	-1.38 ± 0.13	-0.87 ± 0.14
UGUCAGCAAUAUUACGCGCU	-0.874 ± 0.17	-0.182 ± 0.17
UGUCAGCAAUAUUACGGACU	-1.36 ± 0.12	0.712 ± 0.13
UGUCAGCAAUAUUACGGAGC	–	-2.89 ± 0.43
UGUCAGCAAUAUUACGUAAA	-0.534 ± 0.13	-0.324 ± 0.16
UGUCAGCAAUAUUACGUAAC	-2.38 ± 0.24	0.145 ± 0.26
UGUCAGCAAUAUUACGUGGG	-1.94 ± 0.073	-0.96 ± 0.082
UGUCAGCAAUAUUACGUGUG	-0.636 ± 0.048	0.0859 ± 0.065
UGUGAGCAAUAUUACGACGU	-3.72 ± 0.18	-2.29 ± 0.16
UGUGAGCAAUAUUACGACUA	-0.569 ± 0.2	-1.07 ± 0.19
UGUGAGCAAUAUUACGAGAU	-3.75 ± 0.37	-2.53 ± 0.41
UGUGAGCAAUAUUACGAUCC	-2.29 ± 0.31	-1.87 ± 0.39
UGUGAGCAAUAUUACGCACU	-2.44 ± 0.16	-0.665 ± 0.12
UGUGAGCAAUAUUACGCAGA	-2.79 ± 0.29	-1.83 ± 0.48
UGUGAGCAAUAUUACGCAUC	–	-2.15 ± 0.26
UGUGAGCAAUAUUACGCAUU	-4.49 ± 0.29	-1.77 ± 0.3
UGUGAGCAAUAUUACGCUUU	-3.5 ± 0.33	-3.83 ± 0.33
UGUGAGCAAUAUUACGGACU	-2.24 ± 0.22	-0.378 ± 0.22
UGUGAGCAAUAUUACGGCCG	-0.763 ± 0.15	0.477 ± 0.27
UGUGAGCAAUAUUACGGCGG	-2.35 ± 0.2	-0.738 ± 0.19

Sequence	self-splicing fitness (ln) (30 °C)	self-splicing fitness (ln) (37 °C)
UGUGAGCAAUAUUACGGCGU	-3.33 ± 0.3	-1.92 ± 0.32
UGUGAGCAAUAUUACGGCUU	-2.85 ± 0.27	-1.81 ± 0.23
UGUGAGCAAUAUUACGGGAU	-4.32 ± 0.41	-2.17 ± 0.38
UGUGAGCAAUAUUACGGGUA	-2.92 ± 0.2	-2.86 ± 0.31
UGUGAGCAAUAUUACGUACU	-1.72 ± 0.17	0.399 ± 0.15
UGUGAGCAAUAUUACGUCAU	–	-1.32 ± 0.4
UGUGAGCAAUAUUACGUGGC	–	-1.97 ± 0.4
UGUGAGCAAUAUUACGUUUU	-3.15 ± 0.27	-2.98 ± 0.37
UGUUAGCAAUAUUACGAACG	-0.101 ± 0.092	-0.499 ± 0.11
UGUUAGCAAUAUUACGACUG	0.492 ± 0.095	0.167 ± 0.12
UGUUAGCAAUAUUACGCAAG	-3.38 ± 0.37	-2.13 ± 0.4
UGUUAGCAAUAUUACGCUAA	-2.05 ± 0.4	–
UGUUAGCAAUAUUACGCUGC	-1.63 ± 0.18	-2.44 ± 0.32
UGUUAGCAAUAUUACGGACC	0.127 ± 0.12	0.443 ± 0.16
UGUUAGCAAUAUUACGGAGU	–	-2.73 ± 0.27
UGUUAGCAAUAUUACGGCCC	-2.13 ± 0.36	-1.13 ± 0.41
UGUUAGCAAUAUUACGGCGA	0.174 ± 0.14	-0.431 ± 0.15
UGUUAGCAAUAUUACGGCUU	-0.797 ± 0.16	-0.574 ± 0.19
UGUUAGCAAUAUUACGGGCU	-1.9 ± 0.13	-1.5 ± 0.17
UGUUAGCAAUAUUACGGUAU	-2.59 ± 0.4	-1.95 ± 0.28
UGUUAGCAAUAUUACGGUUG	-1.78 ± 0.14	-1.2 ± 0.15
UGUUAGCAAUAUUACGUAUC	–	-0.937 ± 0.26
